Experimental data taken from the supplement of paper PMC7877785.
± gives the uncertainty stated by the source.

Assay: self-splicing fitness, log relative to wild type (ln ratio); higher = more splicing; Tetrahymena group I intron in knt gene, E. coli kanamycin selection, DiMSum; sequences stand for … in CUCUCU…GGAGGGAAAAGUUAUCAGGCAUGCACCUGGUAGCUAGUCUUUAAACCAAUAGAUUGCAUCGGUUUAAAAGGCAAGACCGUCAAAUUGCGGGAAAGGGGUCAACAGCCGUUCAGUACCAAGUCUCAGGGGAAACUUUGAGAUGGCCUUGCAAAGGGUAUGGUAAUAAGCUGACGGACAUGGUCCUAACCACGCAGCCAAGUCCUAAGUCAACAGAUCUUCUGUUGAUAUGGAUGCAGUUCACAGACUAAAUGUCGGUCGGGGAAGAUGUAUUCUUCUCAUAAGAUAUAGUCGGACCUCUCCUUAAUGGGAGCUAGCGGAUGAAGUGAUGCAACACUGGAGCCGCUGGGAACUAAUUUGUAUGCGAAAGUAUAUUGAUUAGUUUUGGAGUACUCGUGGUCG
Outline: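 The eight P1ex-region nucleotides of an intron in the knt kanamycin-resistance gene on pET-22b(+) were all randomised and the library put into E. coli BL21(DE3). Six replicate transformations were grown overnight at 37°C or 30°C on LB agar with or without 25 μg/mL kanamycin, together with 100 μg/mL carbenicillin, 50 μM IPTG and 0.2% rhamnose. Colonies were pooled and amplicon-sequenced on an Illumina HiSeq 2500. Fitness from DiMSum is the error-weighted combination of wild-type-normalised replicate fold changes, kanamycin over none.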

Sequence	self-splicing fitness (ln) (30 °C)	self-splicing fitness (ln) (37 °C)
ACAUAGCAAUAUUACGUAUC	-3.37 ± 0.19	-1.62 ± 0.2
ACAUAGCAAUAUUACGUCAU	-3.16 ± 0.1	-2.35 ± 0.13
ACAUAGCAAUAUUACGUCUU	-1.33 ± 0.077	-0.302 ± 0.084
ACAUAGCAAUAUUACGUGAC	-3.15 ± 0.15	-2.16 ± 0.15
ACAUAGCAAUAUUACGUUAG	-3.66 ± 0.17	-1.66 ± 0.14
ACAUAGCAAUAUUACGUUCG	-1.04 ± 0.075	-0.65 ± 0.1
ACAUAGCAAUAUUACGUUUU	-3.76 ± 0.16	-2.59 ± 0.17
ACCAAGCAAUAUUACGAAAC	-4.33 ± 0.34	-1.71 ± 0.25
ACCAAGCAAUAUUACGAAGG	-2.34 ± 0.12	-1.09 ± 0.14
ACCAAGCAAUAUUACGACUA	-0.894 ± 0.099	-0.585 ± 0.093
ACCAAGCAAUAUUACGAUGC	-2.45 ± 0.088	-0.944 ± 0.11
ACCAAGCAAUAUUACGCAAC	-3.4 ± 0.38	-1.01 ± 0.17
ACCAAGCAAUAUUACGCACC	-0.532 ± 0.078	-0.199 ± 0.11
ACCAAGCAAUAUUACGCACU	-0.396 ± 0.07	0.498 ± 0.085
ACCAAGCAAUAUUACGCCUU	-2.87 ± 0.15	-1.97 ± 0.15
ACCAAGCAAUAUUACGCGAA	-3.09 ± 0.13	-1.65 ± 0.1
ACCAAGCAAUAUUACGCGAU	-2.1 ± 0.079	-1.17 ± 0.11
ACCAAGCAAUAUUACGCGGG	-3.38 ± 0.11	-2.18 ± 0.1
ACCAAGCAAUAUUACGCUAU	-1.66 ± 0.087	-0.775 ± 0.098
ACCAAGCAAUAUUACGCUCU	-0.714 ± 0.06	-0.02 ± 0.073
ACCAAGCAAUAUUACGGAUC	-3.49 ± 0.14	-1.28 ± 0.1
ACCAAGCAAUAUUACGGCAG	-3.19 ± 0.16	-1.9 ± 0.17
ACCAAGCAAUAUUACGGGAA	-2.85 ± 0.13	-2.19 ± 0.1
ACCAAGCAAUAUUACGGUCU	-2.13 ± 0.08	-0.69 ± 0.066

Sequence	self-splicing fitness (ln) (30 °C)	self-splicing fitness (ln) (37 °C)
ACCAAGCAAUAUUACGUAAU	-2.74 ± 0.098	-0.681 ± 0.078
ACCAAGCAAUAUUACGUCGA	-2.16 ± 0.12	-1.83 ± 0.1
ACCAAGCAAUAUUACGUGCG	-1.03 ± 0.052	-0.972 ± 0.069
ACCAAGCAAUAUUACGUGUA	-2.28 ± 0.09	-1.37 ± 0.096
ACCAAGCAAUAUUACGUUAC	-3.66 ± 0.2	-1.76 ± 0.14
ACCAAGCAAUAUUACGUUCA	-1.65 ± 0.11	-1.18 ± 0.1
ACCAAGCAAUAUUACGUUGC	-2.65 ± 0.086	-0.992 ± 0.075
ACCCAGCAAUAUUACGCCGU	-1.37 ± 0.064	-0.415 ± 0.081
ACCCAGCAAUAUUACGCGAC	-2.48 ± 0.12	-1.22 ± 0.13
ACCCAGCAAUAUUACGCGGA	-0.326 ± 0.05	0.218 ± 0.064
ACCCAGCAAUAUUACGGAAA	-0.977 ± 0.083	-0.213 ± 0.083
ACCCAGCAAUAUUACGGAUA	-0.912 ± 0.08	-0.448 ± 0.083
ACCCAGCAAUAUUACGGAUG	-1.57 ± 0.067	-0.939 ± 0.083
ACCCAGCAAUAUUACGGGGU	-3.58 ± 0.14	-3 ± 0.14
ACCCAGCAAUAUUACGUAAU	-0.676 ± 0.035	0.426 ± 0.061
ACCCAGCAAUAUUACGUAUU	-1.93 ± 0.069	-0.714 ± 0.077
ACCCAGCAAUAUUACGUCAG	-3.14 ± 0.11	-1.22 ± 0.092
ACCCAGCAAUAUUACGUGAG	-0.151 ± 0.037	-0.0922 ± 0.054
ACCCAGCAAUAUUACGUGAU	-0.402 ± 0.034	0.181 ± 0.048
ACCCAGCAAUAUUACGUUCC	-2.32 ± 0.11	-1.02 ± 0.14
ACCCAGCAAUAUUACGUUGG	-3.6 ± 0.1	-2.16 ± 0.11
ACCCAGCAAUAUUACGUUUG	-4.2 ± 0.13	-2.44 ± 0.11
ACCGAGCAAUAUUACGAAAA	-3.51 ± 0.3	-2.81 ± 0.24
